From patent US20200317753A1 (LIFEARC, published 2020)
Like-named read-outs stand apart in the source and are kept apart here.

Assays:
[1] = target: T1, EV71-VLP (virus-like particle) (Enterovirus 71); assay: binding ELISA on EV71-VLP, absorbance at 450 nm
T1 construct: Particle of several capsid proteins

[2] = target: T2, SP70 peptide epitope of the EV71 VP1 capsid protein (Enterovirus 71); assay: binding ELISA on SP70 peptide, absorbance at 450 nm
T2 construct: 15-amino acid peptide; residues 208-222 counted on VP1
T2 peptide: YPTFGEHKQEKDLEY

[3] = target: T1, EV71-VLP (virus-like particle); assay: Bio-Layer Interferometry, steady state plot (apparent KD)
[4] = target: T2, SP70 peptide epitope of the EV71 VP1 …; assay: binding ELISA on SP70 peptide, OD 650 nm [upper panel]
Description: (§1) Serial dilutions of antibody variants (starting from ˜100 −g/ml) were added to immobilised EV71-VLP or the SP70 peptide epitope, shaken for one hour at room temperature and washed with PBS-T. Anti-human kappa chain HRP was added and the incubation and washing steps were repeated. TMB/K-Blue substrate was incubated with the reaction for 5-10 minutes at room temperature before the reaction was stopped with H₂SO₄ RED STOP. The optical density was read at 450/650 nm.

[5] = target: T2, SP70 peptide epitope of the EV71 VP1 …; assay: isothermal titration calorimetry, observed KA
Excerpt: (§2) KD can be calculated using Gibbs free energy, enthalpy and entropy: ΔG=ΔH−TΔS and ΔG=RT In KD.

[6] = target: T2, SP70 peptide epitope of the EV71 VP1 …; assay: isothermal titration calorimetry, observed KD
Excerpt: as §2

[7] = target: T2, SP70 peptide epitope of the EV71 VP1 …; assay: isothermal titration calorimetry
[8] = target: T2, SP70 peptide epitope of the EV71 VP1 …; assay: binding ELISA on SP70 peptide, OD 650 nm
Description: as §1

[9] = target: T1, EV71-VLP (virus-like particle); assay: binding ELISA on EV71-VLP, absorbance at 450 nm; remark: listed apart in the source
[10] = target: T2, SP70 peptide epitope of the EV71 VP1 …; assay: binding ELISA on SP70 peptide, absorbance at 450 nm
[11] = target: T2, SP70 peptide epitope of the EV71 VP1 …; assay: isothermal titration calorimetry (observed KD); the text paragraph 208 prints 17.1 nM
[12] = target: T2, SP70 peptide epitope of the EV71 VP1 …; assay: binding ELISA on SP70 peptide, OD 650 nm
Description: as §1

[13] = target: T2, SP70 peptide epitope of the EV71 VP1 …; assay: binding ELISA on SP70 peptide, antibody not incubated, OD 650 nm [top panel]

B1: murine D5 antibody (antibody, V domains shown)
VH: EVQLQQSGAELVKPGASVKLSCTASGFNIKDTYIHWVKQRPEQGLEWIGKIDPANGNTKYDPKFQDKATITADTSSNTAYLQLSSLTSEDTAVYYCANSNYWFDFDYWGQGTTLTVSS
VL: DVLMTQTPLSLPVSLGDQASISCRSSQSIVHSNGNTYLEWYLQKPGQSPKLLIYKVSNRFSGVPDRFSGSGSGTDFTLKISRVEADDVGVYYCYQGSHVPYTFGGGTKLEIK
notes: Mouse monoclonal IgG1 (label mD5 IgG1); also called mD5; mouse D5
EC50 [1]: 12.7 nM | EC50 [2]: 0.3 nM | Kd [3]: 1.8 nM

B2: hEV71 HAKA (antibody, V domains shown)
VH: QVQLVQSGAEVKKPGASVKVSCKASGYTFTDTYIHWVRQAPGQRLEWIGKIDPANGNTKYDPKFQDRVTITRDTSASTAYMELSSLRSEDTAVYYCASSNYWFDFDYWGQGTLVTVSS
VL: DIVMTQSPLSLPVTPGEPASISCRSSQSIVHSNGNTYLEWYLQKPGQSPQLLIYKVSNRFSGVPDRFSGSGSGTDFTLKISRVEAEDVGVYYCYQGSHVPYTFGGGTKVEIK
notes: Variable domains only; cloned into pHuG1 and pHuK (human IgG / kappa) vectors, expressed in Expi293 cells
binding result [4]: binds

B3: chimeric D5 antibody (antibody, V domains shown)
VH: EVQLQQSGAELVKPGASVKLSCTASGFNIKDTYIHWVKQRPEQGLEWIGKIDPANGNTKYDPKFQDKATITADTSSNTAYLQLSSLTSEDTAVYYCANSNYWFDFDYWGQGTTLTVSS
VL: DVLMTQTPLSLPVSLGDQASISCRSSQSIVHSNGNTYLEWYLQKPGQSPKLLIYKVSNRFSGVPDRFSGSGSGTDFTLKISRVEADDVGVYYCYQGSHVPYTFGGGTKLEIK
notes: Human constant regions and murine D5 variable regions, expressed in Expi293 cells; also called chD5; cD5 CHCK
Ka [5]: 5.66e+07 M⁻¹ | Kd [6]: 17.1 nM | ΔH [7]: -12.8 kcal/mol | ΔS [7]: -7.63 cal/mol/deg | EC50 [8]: 1.4 nM | EC50 [9]: 1.6 nM | EC50 [10]: 6.7 nM | Kd [3]: 0.2 nM | Kd [11]: 17.7 nM

B4: hEV71 HCKA (antibody, V domains shown)
VH: QVQLVQSGAEVKKPGASVKVSCKASGFTFTDTYIHWVRQAPGQRLEWIGKIDPANGNTKYDPKFQDRVTITRDTSASTAYMELSSLRSEDTAVYYCASSNYWFDFDYWGQGTLVTVSS
VL: DIVMTQSPLSLPVTPGEPASISCRSSQSIVHSNGNTYLEWYLQKPGQSPQLLIYKVSNRFSGVPDRFSGSGSGTDFTLKISRVEAEDVGVYYCYQGSHVPYTFGGGTKVEIK
notes: Variable domains only; pHuG1 / pHuK vectors
binding result [12]: binds

B5: hEV71 HAKB (antibody, V domains shown)
VH: QVQLVQSGAEVKKPGASVKVSCKASGYTFTDTYIHWVRQAPGQRLEWIGKIDPANGNTKYDPKFQDRVTITRDTSASTAYMELSSLRSEDTAVYYCASSNYWFDFDYWGQGTLVTVSS
VL: DVLMTQSPLSLPVTPGEPASISCRSSQSIVHSNGNTYLEWYLQKPGQSPQLLIYKVSNRFSGVPDRFSGSGSGTDFTLKISRVEAEDVGVYYCYQGSHVPYTFGGGTKVEIK
notes: as for B4
binding result [4]: binds

B6: hEV71 HBKA (antibody, V domains shown)
VH: QVQLVQSGAEVKKPGASVKVSCKASGFNIKDTYIHWVRQAPGQRLEWIGKIDPANGNTKYDPKFQDKATITADTSASTAYMELSSLRSEDTAVYYCANSNYWFDFDYWGQGTLVTVSS
VL: DIVMTQSPLSLPVTPGEPASISCRSSQSIVHSNGNTYLEWYLQKPGQSPQLLIYKVSNRFSGVPDRFSGSGSGTDFTLKISRVEAEDVGVYYCYQGSHVPYTFGGGTKVEIK
notes: as for B4
EC50 [8]: 1.62 nM

B7: hEV71 HGKA (antibody, V domains shown)
VH: QVQLVQSGAEVKKPGASVKVSCKASGYTFTDTYIHWVRQAPGQRLEWIGKIDPANGNTKYDPKFQDKVTITRDTSASTAYMELSSLRSEDTAVYYCASSNYWFDFDYWGQGTLVTVSS
VL: DIVMTQSPLSLPVTPGEPASISCRSSQSIVHSNGNTYLEWYLQKPGQSPQLLIYKVSNRFSGVPDRFSGSGSGTDFTLKISRVEAEDVGVYYCYQGSHVPYTFGGGTKVEIK
notes: Named only within the range hEV71 HCKA to hEV71 HJKA; Variable domains only
binding result [12]: binds

B8: hEV71 HMKA (antibody, V domains shown)
VH: QVQLVQSGAEVKKPGASVKVSCTASGFNIKDTYIHWVRQAPGQRLEWIGKIDPANGNTKYDPKFQDKATITADTSANTAYMELSSLRSEDTAVYYCANSNYWFDFDYWGQGTLVTVSS
VL: DIVMTQSPLSLPVTPGEPASISCRSSQSIVHSNGNTYLEWYLQKPGQSPQLLIYKVSNRFSGVPDRFSGSGSGTDFTLKISRVEAEDVGVYYCYQGSHVPYTFGGGTKVEIK
notes: Variable domains only; pHuG1 / pHuK vectors, Expi293 cells; behaves as an IgG monomer; also called huEV71 HMKA; EVM00
Ka [5]: 2.62e+07 M⁻¹ | Kd [6]: 38.2 nM | ΔH [7]: -16.5 kcal/mol | ΔS [7]: -21.4 cal/mol/deg | EC50 [8]: 1.15 nM | EC50 (read off the curve) [13]: ~0.8 nM

B9: hEV71 HDKA (antibody, V domains shown)
VH: QVQLVQSGAEVKKPGASVKVSCKASGYNFTDTYIHWVRQAPGQRLEWIGKIDPANGNTKYDPKFQDRVTITRDTSASTAYMELSSLRSEDTAVYYCASSNYWFDFDYWGQGTLVTVSS
VL: DIVMTQSPLSLPVTPGEPASISCRSSQSIVHSNGNTYLEWYLQKPGQSPQLLIYKVSNRFSGVPDRFSGSGSGTDFTLKISRVEAEDVGVYYCYQGSHVPYTFGGGTKVEIK
notes: Variable domains only
binding result [12]: binds

B10: hEV71 HEKA (antibody, V domains shown)
VH: QVQLVQSGAEVKKPGASVKVSCKASGYTITDTYIHWVRQAPGQRLEWIGKIDPANGNTKYDPKFQDRVTITRDTSASTAYMELSSLRSEDTAVYYCASSNYWFDFDYWGQGTLVTVSS
VL: DIVMTQSPLSLPVTPGEPASISCRSSQSIVHSNGNTYLEWYLQKPGQSPQLLIYKVSNRFSGVPDRFSGSGSGTDFTLKISRVEAEDVGVYYCYQGSHVPYTFGGGTKVEIK
notes: as for B7
binding result [12]: binds

B11: hEV71 HPKA (antibody, V domains shown)
VH: QVQLVQSGAEVKKPGASVKVSCKASGYTFTDTYIHWVRQAPGQRLEWIGKIDPANGNTKYDPKFQDKVTITRDTSASTAYMELSSLRSEDTAVYYCANSNYWFDFDYWGQGTLVTVSS
VL: DIVMTQSPLSLPVTPGEPASISCRSSQSIVHSNGNTYLEWYLQKPGQSPQLLIYKVSNRFSGVPDRFSGSGSGTDFTLKISRVEAEDVGVYYCYQGSHVPYTFGGGTKVEIK
notes: Variable domains only
EC50 [8]: 67.7 nM

B12: hEV71 HFKA (antibody, V domains shown)
VH: QVQLVQSGAEVKKPGASVKVSCKASGYTFKDTYIHWVRQAPGQRLEWIGKIDPANGNTKYDPKFQDRVTITRDTSASTAYMELSSLRSEDTAVYYCASSNYWFDFDYWGQGTLVTVSS
VL: DIVMTQSPLSLPVTPGEPASISCRSSQSIVHSNGNTYLEWYLQKPGQSPQLLIYKVSNRFSGVPDRFSGSGSGTDFTLKISRVEAEDVGVYYCYQGSHVPYTFGGGTKVEIK
notes: as for B7
binding result [12]: binds

B13: hEV71 HHKA (antibody, V domains shown)
VH: QVQLVQSGAEVKKPGASVKVSCKASGYTFTDTYIHWVRQAPGQRLEWIGKIDPANGNTKYDPKFQDRATITRDTSASTAYMELSSLRSEDTAVYYCASSNYWFDFDYWGQGTLVTVSS
VL: DIVMTQSPLSLPVTPGEPASISCRSSQSIVHSNGNTYLEWYLQKPGQSPQLLIYKVSNRFSGVPDRFSGSGSGTDFTLKISRVEAEDVGVYYCYQGSHVPYTFGGGTKVEIK
notes: as for B7
binding result [12]: binds

B14: hEV71 HQKA (antibody, V domains shown)
VH: QVQLVQSGAEVKKPGASVKVSCTASGFNIKDTYIHWVKQAPGQRLEWIGKIDPANGNTKYDPKFQDKATITADTSANTAYMELSSLRSEDTAVYYCANSNYWFDFDYWGQGTLVTVSS
VL: DIVMTQSPLSLPVTPGEPASISCRSSQSIVHSNGNTYLEWYLQKPGQSPQLLIYKVSNRFSGVPDRFSGSGSGTDFTLKISRVEAEDVGVYYCYQGSHVPYTFGGGTKVEIK
notes: Variable domains only
EC50 [8]: 1.09 nM

B15: hEV71 HIKA (antibody, V domains shown)
VH: QVQLVQSGAEVKKPGASVKVSCKASGYTFTDTYIHWVRQAPGQRLEWIGKIDPANGNTKYDPKFQDRVTITADTSASTAYMELSSLRSEDTAVYYCASSNYWFDFDYWGQGTLVTVSS
VL: DIVMTQSPLSLPVTPGEPASISCRSSQSIVHSNGNTYLEWYLQKPGQSPQLLIYKVSNRFSGVPDRFSGSGSGTDFTLKISRVEAEDVGVYYCYQGSHVPYTFGGGTKVEIK
notes: as for B7
binding result [12]: binds

B16: hEV71 HJKA (antibody, V domains shown)
VH: QVQLVQSGAEVKKPGASVKVSCKASGYTFTDTYIHWVRQAPGQRLEWIGKIDPANGNTKYDPKFQDRVTITRDTSASTAYMELSSLRSEDTAVYYCANSNYWFDFDYWGQGTLVTVSS
VL: DIVMTQSPLSLPVTPGEPASISCRSSQSIVHSNGNTYLEWYLQKPGQSPQLLIYKVSNRFSGVPDRFSGSGSGTDFTLKISRVEAEDVGVYYCYQGSHVPYTFGGGTKVEIK
notes: as for B4
binding result [12]: binds

B17: hEV71 HNKA (antibody, V domains shown)
VH: QVQLVQSGAEVKKPGASVKVSCKASGFNIKDTYIHWVKQAPGQRLEWIGKIDPANGNTKYDPKFQDKATITADTSASTAYMELSSLRSEDTAVYYCANSNYWFDFDYWGQGTLVTVSS
VL: DIVMTQSPLSLPVTPGEPASISCRSSQSIVHSNGNTYLEWYLQKPGQSPQLLIYKVSNRFSGVPDRFSGSGSGTDFTLKISRVEAEDVGVYYCYQGSHVPYTFGGGTKVEIK
notes: Variable domains only
EC50 [8]: 1.35 nM
